This is an account of results in IntAct's records for PubMed 28712572.

In this assay the target is gbrap_human GABARAP (UniProt O95166).
Chain of gbrap_human GABARAP (O95166 whole entry): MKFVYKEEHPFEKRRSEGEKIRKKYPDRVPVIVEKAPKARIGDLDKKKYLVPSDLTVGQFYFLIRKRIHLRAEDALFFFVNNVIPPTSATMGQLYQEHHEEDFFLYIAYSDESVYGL
For “Pericentriolar material 1 protein (Homo sapiens), Q15154 E1960K”, the “effect of a mutation on the interaction” value was “decreasing interaction strength”.

“Pericentriolar material 1 protein (Homo sapiens), Q15154 E1960L”: the “effect of a mutation on the interaction” value is on record as “with no effect”.

On to “Pericentriolar material 1 protein (Homo sapiens), Q15154 E1960M”, for which the “effect of a mutation on the interaction” value is recorded as “decreasing interaction strength”.

With “Pericentriolar material 1 protein (Homo sapiens), Q15154 E1960N”, the “effect of a mutation on the interaction” value is reported as “with no effect”.

Take “Pericentriolar material 1 protein (Homo sapiens), Q15154 E1960P”: the “effect of a mutation on the interaction” value was “with no effect”.

Take “Pericentriolar material 1 protein (Homo sapiens), Q15154 E1960Q”: the “effect of a mutation on the interaction” value was “with no effect”.

Consider “Pericentriolar material 1 protein (Homo sapiens), Q15154 E1960R”, for which the “effect of a mutation on the interaction” value is listed as “with no effect”.

Consider “Pericentriolar material 1 protein (Homo sapiens), Q15154 E1960S”, for which the “effect of a mutation on the interaction” value is “with no effect”.

As to “Pericentriolar material 1 protein (Homo sapiens), Q15154 E1960T”, the “effect of a mutation on the interaction” value is listed as “with no effect”.

On to “Pericentriolar material 1 protein (Homo sapiens), Q15154 E1960V”, for which the “effect of a mutation on the interaction” value is reported as “decreasing interaction strength”.

“Pericentriolar material 1 protein (Homo sapiens), Q15154 E1960W”: the “effect of a mutation on the interaction” value is given as “with no effect”.

In the case of “Pericentriolar material 1 protein (Homo sapiens), Q15154 E1960Y”, the “effect of a mutation on the interaction” value is on record as “with no effect”.

With “Pericentriolar material 1 protein (Homo sapiens), Q15154 E1961A”, the “effect of a mutation on the interaction” value is recorded as “with no effect”.

Regarding “Pericentriolar material 1 protein (Homo sapiens), Q15154 E1961C”, the “effect of a mutation on the interaction” value was “with no effect”.

On to “Pericentriolar material 1 protein (Homo sapiens), Q15154 E1961D”, for which the “effect of a mutation on the interaction” value was “with no effect”.

Take “Pericentriolar material 1 protein (Homo sapiens), Q15154 E1961F”: the “effect of a mutation on the interaction” value is “with no effect”.

As to “Pericentriolar material 1 protein (Homo sapiens), Q15154 E1961G”, the “effect of a mutation on the interaction” value was “with no effect”.

For “Pericentriolar material 1 protein (Homo sapiens), Q15154 E1961H”, the “effect of a mutation on the interaction” value was “with no effect”.

In the case of “Pericentriolar material 1 protein (Homo sapiens), Q15154 E1961I”, the “effect of a mutation on the interaction” value is reported as “with no effect”.

In the case of “Pericentriolar material 1 protein (Homo sapiens), Q15154 E1961K”, the “effect of a mutation on the interaction” value is listed as “disrupting interaction strength”.

Regarding “Pericentriolar material 1 protein (Homo sapiens), Q15154 E1961L”, the “effect of a mutation on the interaction” value was “with no effect”.

In the case of “Pericentriolar material 1 protein (Homo sapiens), Q15154 E1961M”, the “effect of a mutation on the interaction” value is “decreasing interaction strength”.

Regarding “Pericentriolar material 1 protein (Homo sapiens), Q15154 E1961N”, the “effect of a mutation on the interaction” value was “with no effect”.

Turning to “Pericentriolar material 1 protein (Homo sapiens), Q15154 E1961P”, the “effect of a mutation on the interaction” value was “decreasing interaction strength”.

Consider “Pericentriolar material 1 protein (Homo sapiens), Q15154 E1961Q”, for which the “effect of a mutation on the interaction” value is reported as “with no effect”.

Regarding “Pericentriolar material 1 protein (Homo sapiens), Q15154 E1961R”, the “effect of a mutation on the interaction” value is “decreasing interaction strength”.

Regarding “Pericentriolar material 1 protein (Homo sapiens), Q15154 E1961S”, the “effect of a mutation on the interaction” value was “with no effect”.

“Pericentriolar material 1 protein (Homo sapiens), Q15154 E1961T”: the “effect of a mutation on the interaction” value is “with no effect”.

Regarding “Pericentriolar material 1 protein (Homo sapiens), Q15154 E1961V”, the “effect of a mutation on the interaction” value was “decreasing interaction strength”.

Consider “Pericentriolar material 1 protein (Homo sapiens), Q15154 E1961W”, for which the “effect of a mutation on the interaction” value is “with no effect”.

Consider “Pericentriolar material 1 protein (Homo sapiens), Q15154 E1961Y”, for which the “effect of a mutation on the interaction” value is “with no effect”.

Take “Pericentriolar material 1 protein (Homo sapiens), Q15154 E1967A”: the “effect of a mutation on the interaction” value was “with no effect”.

As for “Pericentriolar material 1 protein (Homo sapiens), Q15154 E1967C”, the “effect of a mutation on the interaction” value is “with no effect”.

Consider “Pericentriolar material 1 protein (Homo sapiens), Q15154 E1967D”, for which the “effect of a mutation on the interaction” value is “with no effect”.

In the case of “Pericentriolar material 1 protein (Homo sapiens), Q15154 E1967F”, the “effect of a mutation on the interaction” value was “with no effect”.

As to “Pericentriolar material 1 protein (Homo sapiens), Q15154 E1967G”, the “effect of a mutation on the interaction” value is on record as “with no effect”.

As for “Pericentriolar material 1 protein (Homo sapiens), Q15154 E1967H”, the “effect of a mutation on the interaction” value is “with no effect”.

In the case of “Pericentriolar material 1 protein (Homo sapiens), Q15154 E1967I”, the “effect of a mutation on the interaction” value was “with no effect”.

Regarding “Pericentriolar material 1 protein (Homo sapiens), Q15154 E1967K”, the “effect of a mutation on the interaction” value was “with no effect”.

Consider “Pericentriolar material 1 protein (Homo sapiens), Q15154 E1967L”, for which the “effect of a mutation on the interaction” value was “with no effect”.

For “Pericentriolar material 1 protein (Homo sapiens), Q15154 E1967M”, the “effect of a mutation on the interaction” value is “with no effect”.

“Pericentriolar material 1 protein (Homo sapiens), Q15154 E1967N”: the “effect of a mutation on the interaction” value is reported as “with no effect”.

In the case of “Pericentriolar material 1 protein (Homo sapiens), Q15154 E1967P”, the “effect of a mutation on the interaction” value is listed as “with no effect”.

Consider “Pericentriolar material 1 protein (Homo sapiens), Q15154 E1967Q”, for which the “effect of a mutation on the interaction” value was “with no effect”.

On to “Pericentriolar material 1 protein (Homo sapiens), Q15154 E1967R”, for which the “effect of a mutation on the interaction” value is “with no effect”.

On to “Pericentriolar material 1 protein (Homo sapiens), Q15154 E1967S”, for which the “effect of a mutation on the interaction” value is “with no effect”.

For “Pericentriolar material 1 protein (Homo sapiens), Q15154 E1967T”, the “effect of a mutation on the interaction” value is listed as “with no effect”.

In the case of “Pericentriolar material 1 protein (Homo sapiens), Q15154 E1967V”, the “effect of a mutation on the interaction” value was “with no effect”.

With “Pericentriolar material 1 protein (Homo sapiens), Q15154 E1967W”, the “effect of a mutation on the interaction” value is “with no effect”.

As to “Pericentriolar material 1 protein (Homo sapiens), Q15154 E1967Y”, the “effect of a mutation on the interaction” value is reported as “with no effect”.

Take “Pericentriolar material 1 protein (Homo sapiens), Q15154 F1963A”: the “effect of a mutation on the interaction” value is given as “disrupting interaction strength”.

For “Pericentriolar material 1 protein (Homo sapiens), Q15154 F1963C”, the “effect of a mutation on the interaction” value is listed as “disrupting interaction strength”.

On to “Pericentriolar material 1 protein (Homo sapiens), Q15154 F1963D”, for which the “effect of a mutation on the interaction” value is recorded as “disrupting interaction strength”.

Regarding “Pericentriolar material 1 protein (Homo sapiens), Q15154 F1963E”, the “effect of a mutation on the interaction” value is recorded as “disrupting interaction strength”.

On to “Pericentriolar material 1 protein (Homo sapiens), Q15154 F1963G”, for which the “effect of a mutation on the interaction” value is given as “disrupting interaction strength”.

“Pericentriolar material 1 protein (Homo sapiens), Q15154 F1963H”: the “effect of a mutation on the interaction” value is recorded as “disrupting interaction strength”.

For the substance “Pericentriolar material 1 protein (Homo sapiens), Q15154 F1963I”, the “effect of a mutation on the interaction” value is on record as “disrupting interaction strength”.

With “Pericentriolar material 1 protein (Homo sapiens), Q15154 F1963K”, the “effect of a mutation on the interaction” value was “disrupting interaction strength”.

Take “Pericentriolar material 1 protein (Homo sapiens), Q15154 F1963L”: the “effect of a mutation on the interaction” value is reported as “disrupting interaction strength”.

In the case of “Pericentriolar material 1 protein (Homo sapiens), Q15154 F1963M”, the “effect of a mutation on the interaction” value was “disrupting interaction strength”.

On to “Pericentriolar material 1 protein (Homo sapiens), Q15154 F1963N”, for which the “effect of a mutation on the interaction” value was “disrupting interaction strength”.

As to “Pericentriolar material 1 protein (Homo sapiens), Q15154 F1963P”, the “effect of a mutation on the interaction” value is “disrupting interaction strength”.

Consider “Pericentriolar material 1 protein (Homo sapiens), Q15154 F1963Q”, for which the “effect of a mutation on the interaction” value is listed as “disrupting interaction strength”.
